Assay results: the supplement of paper PMC6757056
± gives the standard deviation of the averaged measurements.

B1: library; a variant is named by its letters at N, in order (parent)
chain: GCUGUCACCGGUGCUUGGUACGUUAUAUUCAGCCGGUCUGAUGAGUCUNNNNNNAGACGAAACAGC

Tests used:
(6R,S)-folinic acid [1] = variants of: B1; assay: normalized RNA/DNA level without ligand (relative to sTRSVctl = 100) (log10 (% of sTRSVctl)); HEK293T overexpressing SLC46A1; higher = less ribozyme self-cleavage, higher mRNA level; settings: without (6R,S)-folinic acid; ligand present: no
Summary of the method: (§1)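 HEK293T cells received ligand, where used, 1 h before being transfected with 4 µg per 6-well well of library plasmids encoding reporter-linked ribozyme switches. After 72 h, RNA was extracted with EDTA and sequenced. RNA level was derived from RNA reads per DNA read, normalized to a spiked-in non-cleaving sequence or the top sequences, then scaled and log-transformed. Values were ×100 then log10, the top set was 25 sequences, and the minimum was 100 DNA reads.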

(6R,S)-folinic acid [2] = variants of: B1; assay: normalized RNA/DNA level with ligand (relative to sTRSVctl = 100) (log10 (% of sTRSVctl)); HEK293T overexpressing SLC46A1; ligand concentration (+) RNA-Seq: 6 mM; higher = less ribozyme self-cleavage, higher mRNA level; settings: with (6R,S)-folinic acid; ligand present: yes
Summary of the method: as §1

Variant | normalized RNA/DNA level without ligand (log10) ((6R,S)-folinic acid [1]) | normalized RNA/DNA level with ligand (log10) ((6R,S)-folinic acid [2])
GCUGUCACCGGUGCUUGGUACGUUAUAUUCAGCCGGUCUGAUGAGUCUAGUACAAGACGAAACAGC [AGUACA] | 1.983 ± 0.0056 | 2 ± 0.038
GCUGUCACCGGUGCUUGGUACGUUAUAUUCAGCCGGUCUGAUGAGUCUAGUACCAGACGAAACAGC [AGUACC] | 2.07 ± 0.0045 | 2.04 ± 0.044
GCUGUCACCGGUGCUUGGUACGUUAUAUUCAGCCGGUCUGAUGAGUCUAGUACUAGACGAAACAGC [AGUACU] | 2.008 ± 0.0088 | 2.02 ± 0.043
GCUGUCACCGGUGCUUGGUACGUUAUAUUCAGCCGGUCUGAUGAGUCUUGUACGAGACGAAACAGC [UGUACG] | 1.772 ± 0.0054 | 1.98 ± 0.038
GCUGUCACCGGUGCUUGGUACGUUAUAUUCAGCCGGUCUGAUGAGUCUUGUACCAGACGAAACAGC [UGUACC] | 2.019 ± 0.0028 | 2.03 ± 0.057
GCUGUCACCGGUGCUUGGUACGUUAUAUUCAGCCGGUCUGAUGAGUCUUGUACAAGACGAAACAGC [UGUACA] | 1.958 ± 0.018 | 2 ± 0.051
GCUGUCACCGGUGCUUGGUACGUUAUAUUCAGCCGGUCUGAUGAGUCUCGUAGUAGACGAAACAGC [CGUAGU] | 2.011 ± 0.0076 | 2 ± 0.034
GCUGUCACCGGUGCUUGGUACGUUAUAUUCAGCCGGUCUGAUGAGUCUCGUAGAAGACGAAACAGC [CGUAGA] | 1.9919 ± 0.00011 | 1.99 ± 0.043
GCUGUCACCGGUGCUUGGUACGUUAUAUUCAGCCGGUCUGAUGAGUCUCGUAGCAGACGAAACAGC [CGUAGC] | 2.03 ± 0.023 | 2.03 ± 0.022
GCUGUCACCGGUGCUUGGUACGUUAUAUUCAGCCGGUCUGAUGAGUCUCGUAGGAGACGAAACAGC [CGUAGG] | 1.829 ± 0.015 | 1.979 ± 0.013
GCUGUCACCGGUGCUUGGUACGUUAUAUUCAGCCGGUCUGAUGAGUCUAGUAAGAGACGAAACAGC [AGUAAG] | 1.897 ± 0.0041 | 2.01 ± 0.057
GCUGUCACCGGUGCUUGGUACGUUAUAUUCAGCCGGUCUGAUGAGUCUAGUAACAGACGAAACAGC [AGUAAC] | 2.003 ± 0.0042 | 2.01 ± 0.026
GCUGUCACCGGUGCUUGGUACGUUAUAUUCAGCCGGUCUGAUGAGUCUAGUAAUAGACGAAACAGC [AGUAAU] | 1.99 ± 0.02 | 2 ± 0.026
GCUGUCACCGGUGCUUGGUACGUUAUAUUCAGCCGGUCUGAUGAGUCUGGUAACAGACGAAACAGC [GGUAAC] | 1.99 ± 0.041 | 2.005 ± 0.012
GCUGUCACCGGUGCUUGGUACGUUAUAUUCAGCCGGUCUGAUGAGUCUUGUAACAGACGAAACAGC [UGUAAC] | 1.95 ± 0.034 | 1.99 ± 0.038
GCUGUCACCGGUGCUUGGUACGUUAUAUUCAGCCGGUCUGAUGAGUCUAGGUUCAGACGAAACAGC [AGGUUC] | 2.02 ± 0.024 | 2.03 ± 0.045
GCUGUCACCGGUGCUUGGUACGUUAUAUUCAGCCGGUCUGAUGAGUCUAGGUUGAGACGAAACAGC [AGGUUG] | 2.005 ± 0.013 | 2.04 ± 0.053
GCUGUCACCGGUGCUUGGUACGUUAUAUUCAGCCGGUCUGAUGAGUCUCGGUUGAGACGAAACAGC [CGGUUG] | 2.026 ± 0.02 | 2 ± 0.065
GCUGUCACCGGUGCUUGGUACGUUAUAUUCAGCCGGUCUGAUGAGUCUCGGUUUAGACGAAACAGC [CGGUUU] | 2.033 ± 0.017 | 2.056 ± 0.012
GCUGUCACCGGUGCUUGGUACGUUAUAUUCAGCCGGUCUGAUGAGUCUUGGUUCAGACGAAACAGC [UGGUUC] | 2.01 ± 0.011 | 2.01 ± 0.081
GCUGUCACCGGUGCUUGGUACGUUAUAUUCAGCCGGUCUGAUGAGUCUUGGUUUAGACGAAACAGC [UGGUUU] | 1.95 ± 0.021 | 1.97 ± 0.026
